These results are taken from a protein production outcome set (Wang et al. 2014).

A short description of this series: label from the status in PepcDB records.
In the case of “MDVIKISPRGYCYGVVDAMVIAKNASLDKSLPRPIYILGMIVHNKHVTDAFEEEGILTLDGSNRLDILKQVDKGTVIFTAHGVSPEVRRIAEEKGLVAIDATCPDVTKTHNLILEMKEKGYHVIYIGKKGHPEPEGAVGVAPEIVHLVETEEDVKNLDIQSEKLIVTNQTTMSQWDVHDIMELVKEKYPHVEYHQEICLATQVRQEAVSEQAKKADLTIVVGDPKSNNSNRLAQVSEEIAGTKAYRIGDLSELKLEWLKGVNTVAVTAGASTPTPITKEVIRFLEQFDHE”, the protein production entry is recorded as “failed”. As for “MDVKKDENSILENMKQEINHSLKEEAQEEEEILKKRISSHPLYGLLLHSHLNCLKVCSGDFDSPEIMNTADDLALSKLSLHPDSSSEATSSELDQFMVLFFFSPCQNIFTQQKTTFHVLLFFPLQINLTFKYSKFILPRKKQ”, the entry is “failed”; as for “MDVKQTLEKAIALRQNKRYQESNAILVTLCKEHAHDPQILYQCGWSFDVLGLEAQAVPYYEKAIASGLQGKDLAECYLGLGSTFRTLGEYRKAEAVLANGVKQFPNHQALRVFYAMVLYNLGRYEQGVELLLKIIAETSDDETIQSYKQAILFYADKLDETWKALEHHHHHH”, “not failed”. Next, “MDVSNKDAKRTDTIILANFDPITKEAKLISIPRDTRVKIGGKSQKINAAYPIGGEKLVKQLVGNILGVKVDYVVKVDYEGFRGIIDAIGGIDMYIEQDMNYDDPGQDLHIHFNKGETVHLDGKKAEEFFRWRKNNDGTGLVNGDVDRIKNQQKFINAVIDKVLSVSTITKIDSIAEILNKNIETNIPLDVTVAYGLKGLETDKNNIKMMTLPGEGKYVGNVSYYIPDEKATKELRSQLNSSNLSGRKNVIPSAARGDLSIKVLNCTKINGLAANVQKQLNENGYDKVDLEHHHHHH”: “not failed”. “MDVSVFLAALGISLLELTEAGAIAAIYHNIYKNNLPFIYAVLGVAIVLIPTFTLGKLIYLVPLNYVLLASAVILFYFGYRLIRSARRSFKGIKKKGGEEKEEGLSVVFTVSAIEGLEASLVILALIPQSYSSAVMGAILASVLVVILTAILKSQVARIRLPHLKFVLSALLFSLGTLWISEVVFDIPDLILPLFFLAYLGINYVIIKI”: the protein production result was “failed”.

As to “MDVYHDGACPEVKPVDNFDWSQYHGKWWEVAKYPSPNGKYGKCGWAEYTPEGKSVKVSRYDVIHGKEYFMEGTAYPVGDSKIGKIYHSRTVGGYTKKTVFNVLSTDNKNYIIGYSCRYDEDKKGHWDHVWVLSRSMVLTGEAKTAVENYLIGSPVVDSQKLVYSDFSEAACKVNNSNWSHPQFEK”, the protein production entry is reported as “not failed”. As for “MDYFLLHGGGNADRQSGGVHRWLAGAIRELGMLVAETSGHDAFLEQIGAVHPEVVFVRFASSPARIDVPEHDQKLGEGTDAIGEATQLVAQLTRLFPGLPLVAVGSASDGRAMLAALRAGVKDFIDVDGAPAEAVRVVRRLLAERASAEPTRRGRVLAILGARPGVGTTTLASNLATLVRRTSGGDVMLLDLGQPLRDGALYLNVPANFHFVEAVRNLRRFDQVFVQTALSRHPNGLAVLPLPVSLAEMRDISFSEALGLLNRLRTFFDLQVVDLGGFNNIDFIAQLVKAADDVMLVTEQSVGAIVSAAELMQELKKREIDRERLHLILSKFDARLSLDAEQIGVRLEIPSVLTVPSRRRALVVASNQGAMLAETHPIDPYVRAIAGIVQTLGYTQPGERAPGVAGWMAGMRARLGERFRRKPTEPAELDLRTTERNAT”, the entry is “failed”; as for “MDYGMYFFEHVTPYETLVRRMERVIASGKTPFQDYFLFESKGFGKVLILDKDVQSTERDEYIYHETLVHPAMLTHPEPKRVLIVGGGEGATLREVLKHPTVEKAVMVDIDGELVEVAKRHMPEWHQGAFDDPRAVLVIDDARAYLERTEERYDVVIIDLTDPVGEDNPARLLYTVEFYRLVKAHLNPGGVMGMQAGMILLTHHRVHPVVHRTVREAFRYVRSYKNHIPGFFLNFGFLLASDAFDPAAFSEGVIEARIRERNLALRHLTAPYLEAMFVLPKDLLEALEKETMVSTDQNPFYVTPEGEARQAPYKG”, “not failed”.

Regarding “MDYKPLAKEILKNIGTKSNVRSITHCVTRVRFVLNDESQANDEVIRDLDGVLDVVKQGGQYQVVIGPSVGSVYDAIIDVANFSDNVINSSEIAAPTSDETEEKGFLNKALGLISSIFIPVLGLLSGAGMIKAILSLCTVTGLLTAKSGTYIILSALGDTLFYFFPIVVGWSAARKFGLKEIYGVTLGAFLVYPTLATAASSTAVTTIFKGTIFALKYKMTFLGIPVALQSYSSTVIPIIIIVWFASYVYKYCDKVIPDVLKMVFVPFFTLLIAGVVSLIVIGPIAMILQNILSDTVLWLVGLNKGIAGFLLGFFWSILVMFGLHWAVIPFFAIDVAHYGYDVINPLIFAGGLAVLGSAIGVAIRARDERVKSMSVAAAISAFFGINEPALYGVLIPRKKVLLTSFLAAGIGGAIAGFSGSKLYSFGASGILGLPCFINPKGIDAGFIGLCISGIVAFVFALIAALIAGAKKDAKSKPAERHLAEHSDVYAPVAGESFDLTTVHDDVFSKLVLGDGIAVKPSDGKVYAPVTGIVRVAYPTGHAVGLASDDGEEVLIHIGIDTVNLEGKHFKMHVAQGMRVKKGDLLVDFDEAAISAAGYDTTVMMVVTKSERLKSVMPTQFGPVTKDTKVLDVELQSNSVESVTAVATND”, the protein production entry is “failed”. Turning to “MDYKVSVLIVCYNQEKYIKKALESVLSQKVNFNYEIVVCDDCSSDRTFNILQEYKSKLGSKLNLIRNYKNLGITLNYKNGFKNCKGEYIAVLEGDDYWIQKSKLKRQVSFLESNRDCSLVFNKIVLDYGDEKINNLIYPFNDIRKKFSARELVRSNFIQNFSCCMYRKSSIRKLRESIYDMVVYDWMFNMAVAQFGLIGYIPNYMTSHRILKSGLWSGKSKMENLQMISKCIDQYDSFFKYKYRKEFSQNKQEVLQALRRLVMVNENGLEHHHHHH”, the protein production entry is reported as “not failed”.

Turning to “MDYMERPKLGLIVREPYASLIVDGRKVWEIRRRKTRHRGPLGIVSGGRLIGQADLVGVEGPFSVEELLAHQEKHLAEEAFLRAYAKDEPLYAWVLENAFRYEKPLHVPRRPGRVMFVDLSEVRW”, the protein production result is “not failed”.

Turning to “MDYNQTVLSHLQKFWKHHDIKGFTWTLGRIVEELPDFQVFQVIPNHEDEPWVYVSSGIGQFLGQEFFIISPFETPEHIETLAMLASASMHYPDQFQLGKTVNIGRPWVEQSSFRHFLISLPYPYGQELEYMDNVRFFWLLPITQTERLFLNTHSVEELETKFDEAGIDYLDINRASTVWQAG”, the protein production entry was “not failed”.

As to “MDYREVDSTSEFVCRLEHGGDWRAQIEAFADEQGIDAGFFYGLGAVQDAELMFYDQDRTEYDSLTFDEPLEVAACMGNISHFDGERFAHTHAVLSRPDGEAVAGHLNAGTVWAGELYVRGFDTELQREHDEPTDLDLWNILEHHHHHH”, the protein production entry is on record as “failed”.

As for “MDYSNTYGAYGGGGFLPESPARTGGNASTRFGVGSGSSLRDQRRSLLPVRVADLVHAVHDPVTNTFVLRDENEHQSITISEGSIVKVVAYVEELREQPLDLLWLLDDRSGEMIWARMASTSSSSLAALEQSGILVRVFGQLLEVDGRRVLNVRAIRKADGEVELRYHENLCQLSKLQLIRGYPTAGNALAGASSSPASPKAGPSKAVHRSSLGSGAPKEMAQQAPGLEIPAAFPPEHFKVLKCIREETARNRDAMLTDIAQRIALSTTKVRGICDALQNEGHIYCTLDDDTFRASSS”, the protein production entry is reported as “not failed”. As for “MEAARSMTFSECAALYIKAHRSSWKNTKHADQWTNTIKTYCGPVIGPLSVQDVDTKLIMKVLDPIWEQKPETASRLRGRIESVLDWATVRGYREGDNLEHHHHHH”, the protein production entry was “failed”. Next, “MEAAVNAAEAYSHIRAVMGMVVGLSLARLLTGLAGFVQHPKKERIYLLHIGWVAFLFLMLVHFWWWEHRLSATGHVLDFGAFLFLILFCSLFYFLCVLLFPTDMKEYKGYEDYFFSRKSWFFAFLAALFVTDVGDTLLKGHDYLASLGPEYLIRTAIYVVLFTAAAFIDNRRFHRFLVIFALVYQIAWIFRTYDLLA”: “failed”.

As for “MEAEEIIGLLKKGDLEKAKDALSKEIDNLSDEELKEILEVAESVAKEKEDIELLKLVVYYYAEFFGIDKLEEFEGIAKEKGYEGLMHLADLYSLLGYPEKALDIYRELLKTDLIKEKEHIGEIYYGIATIHDELQEYDKALEAINEAVKAFKESNNVEKLHQAEVYRAYITFENGDRDKAKEILAGLLPHVTNREIKAQIHLVFKEIFEDEENYEAAIQESLYSLIEGIDTEVFDLAFDGLIDLIWELILEDKFEEIYKSMPMFKVAIPSLKDFFEGVRRIAMYREGKIGREEVSEILMKVKDERLVSILEFLGEAEV”, the protein production entry was “failed”. For the sequence “MEAFGGFVMDEQAIQVENVFLEFLKSFRLDANKPELYYEAEIEAIRGGESTMMYIDFSHVMGFNDALQKAIADEYLRFEPYLRNACKRFVIEMNPSFISDDTPNKDINVSFYNLPFTKRLRELTTAEIGKLVSVTGVVTRTSEVRPELLYGTFKCLDCGSVIKNVEQQFKYTQPTICVSPTCLNRARWALLRQESKFADWQRVRMQETSKEIPAGSLPRSLDVILRHEIVEQARAGDTVIFTGTVVVIPDISALAAPGERAECRRDSSQQKSSTAGHEGVQGLKALGVRDLSYRLAFIANSVQIADGSRNTDMRNRQNDSNEDDQQQFTAEELDEIQQMRNTPDYFNKLVGSMAPTVFGHQDIKRAVLLMLLGGVHKTTHEGINLRGDINVCIVGDPSCAKSQFLKYTAGIVPRSVYTSGKSSSAAGLTATVAKEPETGEFCIEAGALMLADNGICCIDEFDKMDIKDQVAIHEAMEQQTISITKAGIQATLNARTSILAAANPVGGRYDKSKPLKYNVNLPPAILSRFDLVYVMIDDPDEVTDYHIAHHIVRVHQKHEAALSPEFTTVQLKRYIAYAKTLKPKLSPEARKLLVESYVALRRGDTTPGTRVAYRMTVRQLEALIRLSEAIARSHLEILVKPSHVLLAVRLLKTSVISVESGDIDLSEYQDANGDNMDDTDDIENPVDGEEDQQNGAAEPASATADNGAAAQKLVISEEEYDRITQALVIRLRQHEETVNKDSSELPGIRQKELIRWFIDQQNEKKKYSSQEQVKLDIKKLRAIIESLVCKEGHLIVLANEQEEAAEAEETKKKSSQRDERILAVAPNYVIE”, the protein production result is recorded as “failed”.

Consider “MEAIFWLALALVAFTYAGYPLVLAVWDGAREALAAVRFVSGGDDRRGRATEGWPTVTLLFSAFDEEAWIRRKIENCLALDYPPDRLEILVGCDGCTDRTAEIAREVGGSRVKVHALSPRAGKASVLSRLVPQARGDLVVLTDANVMLERGALRALARRFREPGVGAVVGRLRLFNPTRREFEESLYWKYETAIKYYEGKHGCVLGANGGIYAIRRILFSPLPPDTIVDDFVIPVRIAARGWEVPFEPEAVAFEETTEDAGHEFGRRARIGAGNWQALARVPELLDPRTGFLCFAFVSHKLLRWSAPFLLAAAAVANGLLAAAPGAWGYRALLLAQAAFYGLALAGRHGAVGLRGPVRRLASLAHYFVAMNAALAVGLWRFLRRSQRAAWQRTERAGPSVPAA”, for which the protein production entry is reported as “failed”. Next, “MEAITYKYYQEKYYGNILNEEDFKRYEKKARRKLSSFTFGRIDCLQNVPDEVGDCICDMAEKISLEESKENFSGIVSESTDGHSVTFEKKQSIEQMNKELYLIAVGYLNNTGLLYGGVCLCSTARNW”: “failed”. “MEAKQAAGALLTVVGVLLILYAIYSGFVNETIGSTEKFSADAAAMIVGWFAVLIGPALLFGETPAAVRKAAGR”: the protein production entry is “failed”.
